Source: PMC6805918, “Extracellular pyridine nucleotides trigger plant systemic immunity through a lectin receptor kinase/BAK1 complex” (Nature Communications, 2019)

Molecular target: T1, GST-BAK1KD (cytoplasmic kinase domain of BAK1, AAs 250-615, fused to GST) (Arabidopsis thaliana, UniProt Q94F62 250-615)
T1 construct: BRASSINOSTEROID …1-ASSOCIATED KINASE1 (BAK1), Arabidopsis thaliana, cytoplasmic kinase domain, amino acids 250-615; Cloned into the EcoRI/SalI site of pGEX-4T-1; source: E. coli BL21(DE3), purified; not shown: GST, N-terminal, kept
T1 sequence (looked up): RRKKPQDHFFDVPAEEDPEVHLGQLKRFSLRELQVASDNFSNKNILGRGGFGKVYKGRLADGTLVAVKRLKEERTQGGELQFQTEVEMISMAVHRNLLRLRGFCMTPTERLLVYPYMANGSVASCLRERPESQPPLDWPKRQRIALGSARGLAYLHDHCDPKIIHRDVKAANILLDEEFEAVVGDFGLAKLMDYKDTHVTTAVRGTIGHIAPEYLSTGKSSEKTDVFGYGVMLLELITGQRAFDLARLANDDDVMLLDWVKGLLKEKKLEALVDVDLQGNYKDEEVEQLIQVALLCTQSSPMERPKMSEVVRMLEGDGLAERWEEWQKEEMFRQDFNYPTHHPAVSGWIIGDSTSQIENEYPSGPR
Experiment: pull-down; 1 μg MBP or MBP-LecRK-VI.2KD incubated with 1 μg GST-BAK1KD in 20 mM Tris-HCl, 200 mM NaCl, 1 mM EDTA, pH 7.4, 4 °C; pulled down with amylose resin beads; washes with 0.6% Triton X-100; immunoblot with anti-MBP and anti-GST
Conditions: both partners purified

B1: MBP-LecRK-VI.2KD (cytoplasmic kinase domain of LecRK-VI.2, AAs 331-682, fused to maltose-binding protein) (domain or fragment, Arabidopsis thaliana, UniProt Q9M021 331-682, looked up)
chain: FVMYKKRLGQEETLEDWEIDHPRRLRYRDLYVATDGFKKTGIIGTGGFGTVFKGKLPNSDPIAVKKIIPSSRQGVREFVAEIESLGKLRHKNLVNLQGWCKHKNDLLLIYDYIPNGSLDSLLYTVPRRSGAVLSWNARFQIAKGIASGLLYLHEEWEKIVIHRDVKPSNVLIDSKMNPRLGDFGLARLYERGTLSETTALVGTIGYMAPELSRNGNPSSASDVFAFGVLLLEIVCGRKPTDSGTFFLVDWVMELHANGEILSAIDPRLGSGYDGGEARLALAVGLLCCHQKPASRPSMRIVLRYLNGEENVPEIDDEWGYSKSSRSEFGSKLVGYVSSTSITRVSSTSRISQ
notes: lectin receptor kinase LecRK-VI.2, Arabidopsis thaliana, gene At5g01540, cytoplasmic kinase domain, amino acids 331-682; Cloned into the BamHI/SalI site of pMAL-p2X; source: E. coli BL21(DE3), purified; not shown: MBP, N-terminal, kept
- binding result: binds
